Laboratory results taken from patent publication US20050123972A1 (Bristol-Myers Squibb, published 2005).

T1: wild-type human CCR3 (endogenous, on native human eosinophils) (human, UniProt P51677 1-355)
T1 construct: This is the endogenous receptor on human eosinophils; also called eotaxin receptor; wild-type intact receptor in eosinophils
T1 sequence: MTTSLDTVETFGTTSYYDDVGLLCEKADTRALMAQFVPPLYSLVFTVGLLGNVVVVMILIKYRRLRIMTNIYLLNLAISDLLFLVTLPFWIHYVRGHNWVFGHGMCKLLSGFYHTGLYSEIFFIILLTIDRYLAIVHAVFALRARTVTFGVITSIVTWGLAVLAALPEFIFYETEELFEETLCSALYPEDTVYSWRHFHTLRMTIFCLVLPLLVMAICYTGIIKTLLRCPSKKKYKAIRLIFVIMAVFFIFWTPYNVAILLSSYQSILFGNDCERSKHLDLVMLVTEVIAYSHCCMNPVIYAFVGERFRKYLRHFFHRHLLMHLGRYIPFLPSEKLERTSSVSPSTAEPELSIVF

B1: chimeric CCR3/2 receptor (human CCR3 residues 1-310 joined to the cytoplasmic tail of human CCR2 isoform B), expressed on CHO-K1 cells (receptor)
chain: MTTSLDTVETFGTTSYYDDVGLLCEKADTRALMAQFVPPLYSLVFTVGLLGNVVVVMILIKYRRLRIMTNIYLLNLAISDLLFLVTLPFWIHYVRGHNWVFGHGMCKLLSGFYHTGLYSEIFFIILLTIDRYLAIVHAVFALRARTVTFGVITSIVTWGLAVLAALPEFIFYETEELFEETLCSALYPEDTVYSWRHFHTLRMTIFCLVLPLLVMAICYTGIIKTLLRCPSKKKYKAIRLIFVIMAVFFIFWTPYNVAILLSSYQSILFGNDCERSKHLDLVMLVTEVIAYSHCCMNPVIYAFVGERFRKYLSVFFRKHITKRFCKQCPVFYRETVDGVTSTNTPSTGEQEVSAGL
notes: Expressed from the pFLAG-CMV-3 vector in CHO-K1 cells; also called CCR3/2 chimera; CHO CCR3/2 clone 5.5
B2: human eotaxin (125I-labeled human eotaxin, Perkin Elmer #NEX-314; unlabeled recombinant human eotaxin, R&D Systems #320-EO/CF) (ligand)
chain: not shown
modifications: 125I label (position not given) on the tracer form
notes: also called labeled (hot) eotaxin

What was measured:
[1] = biological target: B2; experiment: 125I-eotaxin binding to CHO CCR3/2 clone 5.5 cells, filter plate assay (FIG. 1)
Method: (§1) Invest. 97:604). In order to compare the ability of cells expressing chimeric human CCR3/2 molecules to that of cells expressing endogenous human CCR3 to bind eotaxin, a binding assay was performed. Depending upon the questions being asked, the cells in question were either human or mouse eosinophils, CHO-K1 cells expressing recombinant CCR3 or CCR3/2, parental CHO-K1 cells or other cell types. All assay steps were conducted at room temperature. Multiscreen assay plates (#MABVN1250, Millipore Inc., Marlborough, Mass.) were incubated with 100 μl/well of blocking solution (7.5 μg/ml protamine in PBS) to block non-specific binding. After 20 minutes, the blocking solution was removed and replaced with 100 μl of binding buffer, (RPMI 1640 (Life Technologies, Grand Island, N.Y.) containing 0.1% bovine serum albumin and 20 mM HEPES buffer) and incubated for at least an additional 10 minutes.
(§2) When ready to use plate(s), the following procedure was employed. […]
(§3) Binding data were analyzed using Microsoft EXCEL and then graphed using […] […]

[2] = biological target: T1, wild-type human CCR3 (endogenous, on …); experiment: 125I-eotaxin binding to cells, filter plate assay
Method: as §1, §2, §3

binding result [1] | binding result [2] | Binder
binds |  | B1
 | binds | B2
